This is an account of results in publication PMC11532494 (Nature Communications, 2024).

The experiment deals with AcuC (acetoin-utilization protein C) of Bacillus subtilis (Bacillus subtilis) (UniProt P39067). In words: dose-response enzyme inhibition (Fluor-de-Lys assay).
Chain of AcuC (acetoin-utilization protein C) of Bacillus subtilis (Bacillus subtilis) (P39067 whole entry): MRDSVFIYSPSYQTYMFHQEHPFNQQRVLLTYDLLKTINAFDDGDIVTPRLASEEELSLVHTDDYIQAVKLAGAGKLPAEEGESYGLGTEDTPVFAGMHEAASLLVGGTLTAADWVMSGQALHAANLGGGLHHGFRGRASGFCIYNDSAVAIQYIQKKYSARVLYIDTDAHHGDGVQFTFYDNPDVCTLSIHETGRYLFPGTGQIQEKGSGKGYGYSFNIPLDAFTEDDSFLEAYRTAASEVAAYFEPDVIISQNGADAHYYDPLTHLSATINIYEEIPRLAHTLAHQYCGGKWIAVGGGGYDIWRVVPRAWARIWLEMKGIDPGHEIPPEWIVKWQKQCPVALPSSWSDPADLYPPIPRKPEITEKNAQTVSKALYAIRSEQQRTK

Consider apicidin A (peptide), for which the Ki is below 72 nM.

A word on the Ki: it is a dissociation constant, usually derived from enzyme kinetics or from competition with a known ligand. A low value points to higher affinity.
